From US6500674

How the values were obtained:
[1] = target: phosphorylated tau prepared by incubating recombinant non-phosphorylated tau with a rat brain extract (UniProt P10636); test: sandwich ELISA on CSF spiked with phosphorylated and non-phosphorylated tau, no amplification
[2] = target: phosphorylated tau prepared by incubating recombinant non-phosphorylated tau with a rat brain extract (UniProt P10636); test: sandwich ELISA, antibody coated, CSF spiked with tau, detection with biotinylated AT120 and HT7
[3] = target: recombinant non-phosphorylated tau (UniProt P10636); test: as above
[4] = target: phosphorylated tau prepared by incubating recombinant non-phosphorylated tau with a rat brain extract (UniProt P10636); test: sandwich ELISA, antibody coated, CSF without added tau (background), detection with biotinylated AT120 and HT7
[5] = target: recombinant non-phosphorylated tau (UniProt P10636); test: as above

Row | detection limit in ELISA [1] [pg/mL] | ELISA signal at 0.2 pg/ml tau [2] | ELISA signal at 1 pg/ml tau [2] | ELISA signal at 5 pg/ml tau [2] | ELISA signal at 25 pg/ml tau [2] | ELISA signal at 100 pg/ml tau [2] | ELISA signal at 500 pg/ml tau [2] | ELISA signal at 2000 pg/ml tau [2] | ELISA signal at 0.2 pg/ml tau [3] | ELISA signal at 1 pg/ml tau [3] | ELISA signal at 5 pg/ml tau [3] | ELISA signal at 25 pg/ml tau [3] | ELISA signal at 100 pg/ml tau [3] | ELISA signal at 500 pg/ml tau [3] | ELISA signal at 2000 pg/ml tau [3] | ELISA signal at 0 pg/ml tau (blank) [4] | ELISA signal at 0 pg/ml tau (blank) [5] | Substance
1 | 10 | 89 | 83 | 86 | 113 | 158 | 1040 | 2650 | 91 | 90 | 87 | 92 | 96 | 94 | 98 | 94 | 92 | monoclonal antibody AT270 secreted by the hybridoma deposited at ECACC on Jul. 7, 1993 under No. 93070774
2 | 10 | 95 | 97 | 106 | 105 | 125 | 179 | 449 | 85 | 87 | 90 | 85 | 94 | 92 | 95 | 94 | 89 | monoclonal antibody AT180 secreted by the hybridoma deposited at ECACC on Dec. 22, 1992 under No. 92122204
